Assay in all cases: pulldown
For series [1], the target named is T1, syncrip (Xenopus tropicalis) (UniProt A0A8J0QJ86).
T1 sequence: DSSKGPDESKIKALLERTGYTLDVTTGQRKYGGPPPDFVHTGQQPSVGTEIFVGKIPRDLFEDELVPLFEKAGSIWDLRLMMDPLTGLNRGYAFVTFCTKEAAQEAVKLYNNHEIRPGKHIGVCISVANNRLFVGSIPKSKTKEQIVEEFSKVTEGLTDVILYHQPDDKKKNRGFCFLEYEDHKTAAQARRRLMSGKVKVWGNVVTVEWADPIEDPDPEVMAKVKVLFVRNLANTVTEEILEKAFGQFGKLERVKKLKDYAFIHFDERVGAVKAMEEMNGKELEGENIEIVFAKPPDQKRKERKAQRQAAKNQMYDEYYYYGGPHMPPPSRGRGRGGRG
The conditions noted are these: 20 nM protein, 1.5 uM RNA pool; 20 mM HEPES pH 7.8, 70 mM KCl, 10 mM NaCl, 10% glycerol, 2 mM DTT, 0.1 ug/uL BSA; 30 min, 4 C (protocol of this paper; not …); cited from earlier work.

For series [2], the target named is T2, HNRNPR (Gallus gallus) (UniProt A0A8V0YGA1).
T2 sequence: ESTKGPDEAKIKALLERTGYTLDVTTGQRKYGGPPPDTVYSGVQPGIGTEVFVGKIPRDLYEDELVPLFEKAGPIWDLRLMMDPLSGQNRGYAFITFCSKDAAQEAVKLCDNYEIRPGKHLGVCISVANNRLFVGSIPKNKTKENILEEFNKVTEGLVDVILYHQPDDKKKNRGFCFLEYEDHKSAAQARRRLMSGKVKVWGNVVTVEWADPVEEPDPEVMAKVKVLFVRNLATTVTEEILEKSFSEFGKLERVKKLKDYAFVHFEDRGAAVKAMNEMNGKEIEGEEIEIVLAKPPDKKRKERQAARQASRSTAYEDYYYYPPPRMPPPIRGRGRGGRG
Conditions: 20 nM protein, 1.5 uM RNA pool; 20 mM HEPES pH 7.8, 70 mM KCl, 10 mM NaCl, 10% glycerol, 2 mM DTT, 0.1 ug/uL BSA; 30 min, 4 C (protocol of this paper; not …); cited from earlier work.

Series [3] addresses T3, hnrnpr (Xenopus tropicalis) (UniProt A0A8J0QQ94).
T3 sequence: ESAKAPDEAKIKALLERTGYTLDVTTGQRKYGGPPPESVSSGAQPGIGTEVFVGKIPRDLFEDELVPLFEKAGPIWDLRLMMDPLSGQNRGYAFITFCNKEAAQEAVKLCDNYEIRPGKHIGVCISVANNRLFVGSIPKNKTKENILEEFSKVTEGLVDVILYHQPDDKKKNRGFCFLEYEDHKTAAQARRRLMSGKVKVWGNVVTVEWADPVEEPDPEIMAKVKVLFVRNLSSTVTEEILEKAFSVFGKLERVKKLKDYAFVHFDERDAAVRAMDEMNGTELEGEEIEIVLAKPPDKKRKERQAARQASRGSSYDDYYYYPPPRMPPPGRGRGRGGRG
The conditions noted are these: 20 nM protein, 1.5 uM RNA pool; 20 mM HEPES pH 7.8, 70 mM KCl, 10 mM NaCl, 10% glycerol, 2 mM DTT, 0.1 ug/uL BSA; 30 min, 4 C (protocol of this paper; not …); cited from earlier work.

Series [4] deals with T4, ANKHD1 (Homo sapiens) (UniProt Q8IWZ3).
T4 sequence: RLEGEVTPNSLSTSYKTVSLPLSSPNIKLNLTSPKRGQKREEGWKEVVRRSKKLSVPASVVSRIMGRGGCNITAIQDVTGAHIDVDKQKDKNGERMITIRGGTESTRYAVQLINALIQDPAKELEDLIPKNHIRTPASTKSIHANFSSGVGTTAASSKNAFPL
Conditions: 20 nM protein, 1.5 uM RNA pool; 20 mM HEPES pH 7.8, 70 mM KCl, 10 mM NaCl, 10% glycerol, 2 mM DTT, 0.1 ug/uL BSA; 30 min, 4 C (protocol of this paper; not …); cited from earlier work.

Series [5] concerns the target T5, G3BP2 (Homo sapiens) (UniProt Q9UN86).
T5 sequence: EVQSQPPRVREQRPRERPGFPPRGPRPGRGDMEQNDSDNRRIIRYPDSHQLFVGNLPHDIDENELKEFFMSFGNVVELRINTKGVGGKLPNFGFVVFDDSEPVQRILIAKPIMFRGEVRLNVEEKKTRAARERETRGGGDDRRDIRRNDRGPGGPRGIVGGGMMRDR
The conditions noted are these: 20 nM protein, 1.5 uM RNA pool; 20 mM HEPES pH 7.8, 70 mM KCl, 10 mM NaCl, 10% glycerol, 2 mM DTT, 0.1 ug/uL BSA; 30 min, 4 C (protocol of this paper; not …); cited from earlier work.

The target in series [6] is T6, AT1G76460 (Arabidopsis thaliana) (UniProt F4I2E4).
T6 sequence: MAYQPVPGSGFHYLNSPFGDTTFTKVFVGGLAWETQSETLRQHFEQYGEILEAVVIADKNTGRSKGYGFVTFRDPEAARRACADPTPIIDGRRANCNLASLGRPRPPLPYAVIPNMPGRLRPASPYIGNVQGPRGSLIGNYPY
Conditions: 20 nM protein, 1.5 uM RNA pool; 20 mM HEPES pH 7.8, 70 mM KCl, 10 mM NaCl, 10% glycerol, 2 mM DTT, 0.1 ug/uL BSA; 30 min, 4 C (protocol of this paper; not …); cited from earlier work.

For series [7], the target named is T7, spo5 (Schizosaccharomyces pombe) (UniProt Q2L4W6).
T7 sequence: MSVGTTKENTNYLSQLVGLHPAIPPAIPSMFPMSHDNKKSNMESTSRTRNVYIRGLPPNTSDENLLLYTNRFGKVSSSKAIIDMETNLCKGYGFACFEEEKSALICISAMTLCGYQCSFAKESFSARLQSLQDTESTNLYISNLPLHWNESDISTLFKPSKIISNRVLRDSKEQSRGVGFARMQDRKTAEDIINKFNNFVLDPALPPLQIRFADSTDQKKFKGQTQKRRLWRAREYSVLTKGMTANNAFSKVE
Conditions: 20 nM protein, 1.5 uM RNA pool; 20 mM HEPES pH 7.8, 70 mM KCl, 10 mM NaCl, 10% glycerol, 2 mM DTT, 0.1 ug/uL BSA; 30 min, 4 C.

In series [8] the target is T8, RBM47 (Gallus gallus) (UniProt A0A8V0YMK0).
T8 sequence: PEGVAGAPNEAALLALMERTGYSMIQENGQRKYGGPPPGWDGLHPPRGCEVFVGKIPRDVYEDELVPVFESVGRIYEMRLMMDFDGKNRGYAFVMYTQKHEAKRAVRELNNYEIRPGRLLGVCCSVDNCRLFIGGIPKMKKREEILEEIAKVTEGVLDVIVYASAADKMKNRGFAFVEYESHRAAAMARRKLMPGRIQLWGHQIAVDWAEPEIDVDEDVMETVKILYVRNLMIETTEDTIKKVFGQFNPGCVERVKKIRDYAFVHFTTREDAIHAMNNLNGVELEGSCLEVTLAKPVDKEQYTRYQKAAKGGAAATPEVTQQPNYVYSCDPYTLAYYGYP
Conditions: 20 nM protein, 1.5 uM RNA pool; 20 mM HEPES pH 7.8, 70 mM KCl, 10 mM NaCl, 10% glycerol, 2 mM DTT, 0.1 ug/uL BSA; 30 min, 4 C (protocol of this paper; not …); cited from earlier work.

Consider AAAUU [RNAcompete motif RNCMPT00281], for which the binding signal (z-score (mean of top ten 7-mers)) in series [1] is 7.01.
Consider AAAUU [RNAcompete motif RNCMPT00288], for which, in series [2], the binding signal (z-score (mean of top ten 7-mers)) is 6.51.
For the substance AAAUU [RNAcompete motif RNCMPT00289], the binding signal (z-score (mean of top ten 7-mers)) in series [3] is 8.84.
With AGACGU [RNAcompete motif RNCMPT00002], the binding signal (z-score (mean of top ten 7-mers)) in series [4] is 22.8.
For AGGAUNA [RNAcompete motif RNCMPT00021], the binding signal (z-score (mean of top ten 7-mers)) in series [5] is 8.75.
Take AGUGUGA [RNAcompete motif RNCMPT00284]: in series [6], the binding signal (z-score (mean of top ten 7-mers)) is 8.11.
With AUAUUA [RNAcompete motif RNCMPT00311], the binding signal (z-score (mean of top ten 7-mers)) in series [7] was 7.81.
In the case of GAUGAU [RNAcompete motif RNCMPT00279], in series [8], the binding signal (z-score (mean of top ten 7-mers)) is 8.4.

The values are drawn from article PMC12990809.
